Test results from patent publication US20220362330A1, “Compositions and Methods for Increasing Epithelial Barrier Function” (The Board of Trustees of the Leland Stanford Junior …, priority 2019, published 2022).

How the values were obtained:
genital mucosal barrier [1] = test: Murine tissue permeability assay, low molecular weight fluorescent molecules given intravaginally; format: in vivo, mice
Description: Effects of progestins on genital mucosal barrier permeability were evaluated by intravaginally (ivag) administering 457 Da and 70 KDa-sized fluorescent molecules to mice in estrus or diestrus-stage or after DMPA or LNG treatment. Mice were grouped as follows: untreated in estrus, untreated in diestrus, DMPA treated, or LNG treated. The mice were intravaginally administered a PBS solution containing Lucifer yellow (457 Da) and Texas-Red-conjugated dextran (70 KDa). Animals were euthanized 45 minutes later to assess vaginal tissue penetration of these molecules by confocal microscopy. […] Mucosal permeability was increased moderately by diestrus, but dramatically by DMPA or LNG. Conversely, permeability increases were negligible in estrus-stage mice and mice treated with MePRDL or DMPA and RU486. This indicates exogenous progestins increase genital mucosal permeability.
To evaluate mucosal permeability to low molecular weight molecules, indicated groups of mice were sedated, and 10 μL of a PBS solution containing 62.5 μg of dextran Texas-Red® (DR) (MW=70,000 Da) and 50 μg of Lucifer yellow CH, lithium salt (LY) (MW=457.2 Da) (both from Life Technologies) administered intravaginally. 45 minutes later, mice were euthanized, and excised vaginal tissue fixed in formaldehyde. Fixed tissue was embedded in agarose, and 200-300 μm specimens were sectioned with a vibratome. After counterstaining with 4,6-diamidino-2-phenylindole (DAPI), confocal microscopy images were acquired by sequential scanning to prevent fluorescence crossover.

desmoglein-1a (DSG1a) = test: qRT-PCR of Dsg1a gene expression in vaginal tissue; format: in vivo, mice; conditions: for relative expression of Dsg1a: DMPA-treated mice, His-tagged ephrins 1.5 ug/30 uL ivag; for relative expression of Dsg1a / Dsg1a gene expression in vaginal tissue: 24 h; for Dsg1a gene expression in vaginal tissue: OVX mice, single ivag dose
Description: (§1) To define progestin-mediated changes in mucosal permeability, vaginal tissue from mice in estrus, diestrus, or after DMPA or LNG treatment was used to measure expression of the desmosomal cadherins desmoglein-1a (DSG1a) and desmocollin-1 (DSC1).
(§2) Human ectocervical and murine vaginal tissues were immediately immersed in 1 mL of RNAlater® (Qiagen), stored for 24 h at 4° C., and stored long-term at −80° C. RNA isolated using the RNeasy Lipid Tissue Kit (Qiagen) using manufacturer's instructions was re-suspended in nuclease-free water and quantified using a NanoDrop spectrophotometer (Thermo Scientific). The following mouse primers were utilized: desmocollin 1 (Mm00496525_ml), desmoglein-1α (Mm00809994_s1), ephrinA3 (Mm01212723_g1) and pyruvate carboxylase (Mm00500992_ml) as housekeeping reference gene (all from Thermo Scientific). These human primers were used: desmoglein-1 (Hs00355084_m1) and glucose-6-phosphate isomerase (Hs00976711_m1) as a housekeeping reference gene. To define relative gene expression, 100 ng of RNA was mixed with TaqMan® RNA-to-Ct™ 1-Step Kit and adequate primer (final volume of 10 μL/well) using manufacturer's instructions (Life Technologies). qRT-PCR was performed using a Quantstudio3 Thermal Cycler, and data analyzed via Quanstudio Software (Applied Biosystems).

[2] = test system: claudin-1, occludin, and tight junction protein 1; test: Gene expression of other cell-cell adhesion molecules in vaginal tissue; format: in vivo, mice
DSG1 protein = DSG1 protein levels in vaginal tissue, immunofluorescent staining and confocal microscopy; format: in vivo, mice; conditions: for levels of DSG1 protein in vaginal tissue: His-tagged ephrins 1.5 ug/30 uL ivag; for levels of DSG1 protein in vaginal tissue / DSG1 protein levels in vaginal tissue: 24 h; for DSG1 protein levels in vaginal tissue: OVX mice, single ivag dose
Description: Excised mouse vaginas were formaldehyde fixed and paraffin embedded (FFPE), and 10 μm sections mounted on glass slides and de-paraffinized by sequential immersion in 100% xylene, 100% ethanol, 96% ethanol, and sterile DEPC-treated water. Antigen retrieval was performed using 10 mM sodium citrate buffer (pH 6.0) containing 0.05% Tween 20 (both Sigma-Aldrich) (20 minutes at 95° C.). After 3 PBS washes, sections were incubated overnight in 10% normal goat serum (Abcam, Cambridge Mass.) at 4° C., then incubated for 1 h at ambient temperate with rabbit anti-desmoglein-1 (clone EPR6766(B)) antibody, washed and incubated for 1 h with AlexaFluor® 488-labeled goat anti-rabbit IgG (antibodies from Abcam) (all antibodies were diluted in PBS with 1% BSA and 0.05% Tween 20). Sections were stained with DAPI and evaluated for levels of DSG1 protein (defined by calculating pixel numbers per 100 μm^2) using confocal microscopy and ImageJ software.

desmocollin-1 (DSC1) = test: qRT-PCR of Dsc1 gene expression in vaginal tissue; format: in vivo, mice
Description: as §1, §2

HSV-2 = test: Lethal genital HSV-2 infection; format: in vivo; conditions: DMPA-treated mice
Description: Mice were sedated with xylazine (Lloyd Laboratories, Shenandoah Iowa) and ketamine hydrochloride (JHP Pharmaceuticals, LLC Rochester Mich.), and intravaginally infected with 10^4 plaque-forming units (pfu) of WT HSV-2 333 in 10 μL of RPMI. Mouse mortality was evaluated daily for 15 days.

HSV-1 = test: Genital HSV-1 GFP infection, virus replication in vaginal epithelium; format: in vivo, mice; conditions: DMPA-treated mice
Description: Estrus-stage or DMPA-treated mice were intravaginally administered vehicle or recombinant mouse Fc-EFNA3 at 1.5 ug/30 uL 24 h prior to genital infection with 3×10^3 PFU HSV-1q GFP (fluorescent virus). Vaginal tissue was recovered 24 h after infection and evaluated for HSV-1 replication in the vaginal epithelium using confocal microscopy. […] To evaluate if treatment with rm-EphrinA3 protects mice from lethal HSV-2 infection, DMPA-treated mice were intravaginally administered Fc- or His-tagged versions of the rm-protein prior to infection. […] Because the microarray data indicated EphrinA1, EphrinA2, EphrinA3, EphrinA4, and EphrinA5 were upstream regulators of Dsg1 and Dsc1 expression in the mouse vagina, we hypothesized that capacity of EphrinA3 to increase cell-cell adhesion molecule expression may be shared by other members of the EphrinA family.

genital mucosal barrier [3] = test: Murine tissue permeability assay, low molecular weight fluorescent molecules given intravaginally; format: in vivo, mice; conditions: OVX mice, single dose, vs untreated OVX mice
[4] = progestin-treated mice vs mice in estrus

## C#C[C@]1(O)CC[C@H]2[C@@H]3CCC4=CC(=O)CC[C@@H]4[C@H]3CC[C@@]21CC [LNG, reference compound]
Genital mucosal barrier [1]; confocal images, 45 minutes after ivag administration
  penetration of the 457 Da molecules into vaginal tissue: greatest penetration
Genital mucosal barrier [1]; mice, ivag Lucifer yellow (457 Da) and Texas-Red dextran (70 KDa), 45 minutes, confocal microscopy
  Mucosal permeability increase: dramatically
desmoglein-1a (DSG1a); [4]
  DSG1a gene expression in vaginal tissue: decrease gene expression levels
[2]
  gene expression of claudin-1, occludin, and tight junction protein 1: did not alter
DSG1 protein; [4]
  DSG1a protein expression in vaginal tissue: significantly reduced
desmocollin-1 (DSC1); [4]
  DSC1 gene expression in vaginal tissue: decrease gene expression levels

B1: EphrinA3: mouse recombinant EphrinA3; Fc- or His-tagged version not always specified at the place (protein, UniProt O08545 23-206, looked up)
Ephrin-A3: QGPGGALGNRHAVYWNSSNQHLRREGYTVQVNVNDYLDIYCPHYNSSGPGGGAEQYVLYMVNLSGYRTCNASQGSKRWECNRQHASHSPIKFSEKFQRYSAFSLGYEFHAGQEYYYISTPTHNLHWKCLRMKVFVCCASTSHSGEKPVPTLPQFTMGPNVKINVLEDFEGENPQVPKLEKSISG
HSV-2; one ivag dose (Fc- or His-tagged) prior to lethal HSV-2 infection, compared to DMPA alone
  reduction of mortality: approximately 25%
HSV-1
  HSV-1 replication in mouse genital tissue: reduced
Genital mucosal barrier [1]; DMPA-treated mice, one ivag dose of 1.5 ug/30 uL
  genital mucosal barrier function / permeability to LMW fluorescent molecules: enhanced genital mucosal barrier function
desmoglein-1a (DSG1a)
  relative expression of Dsg1a: increased relative expression
  Dsg1a gene expression in vaginal tissue: greatly improved
desmoglein-1a (DSG1a); listed as EFNA3
  Dsg1a gene expression in vaginal tissue: increases
DSG1 protein; DMPA-treated mice
  levels of DSG1 protein in vaginal tissue: similarly increase
DSG1 protein; DMPA-treated mice, listed as EFNA3
  levels of DSG1 protein in vaginal tissue: increased levels of DSG1 protein
DSG1 protein
  DSG1 protein levels in vaginal tissue: greatly improved
DSG1 protein; listed as EFNA3
  DSG1 protein levels in vaginal tissue: increases
desmocollin-1 (DSC1); OVX mice, single ivag dose, 24 h
  Dsc1 gene expression in vaginal tissue: increases
Genital mucosal barrier [3]
  genital mucosal barrier function (penetration of lucifer yellow, 457 Da): improved function of the genital mucosal barrier
Genital mucosal barrier [3]; listed as EFNA3
  genital mucosal barrier function (penetration of lucifer yellow, 457 Da): enhanced genital mucosal barrier function

B2: His-EFNA3: Ephrin A3 Protein, Mouse, Recombinant (His Tag), SEQ ID NO: 15 (protein, UniProt P52797 23-214, looked up)
Ephrin-A3: QGPGGALGNRHAVYWNSSNQHLRREGYTVQVNVNDYLDIYCPHYNSSGVGPGAGPGPGGGAEQYVLYMVSRNGYRTCNASQGFKRWECNRPHAPHSPIKFSEKFQRYSAFSLGYEFHAGHEYYYISTPTHNLHWKCLRMKVFVCCASTSHSGEKPVPTLPQFTMGPNVKINVLEDFEGENPQVPKLEKSISG
modifications: His tag
HSV-2; 10^4 pfu of HSV-2
  survival after genital HSV-2 infection: improves the survival
DSG1 protein; DMPA-treated mice, ivag in 10 μL of PBS, 24 hours
  levels of DSG1 protein in genital tissue: increased levels of DSG1 protein

B3: EphrinA2: Ephrin A2/EFNA2 Protein, Mouse, Recombinant (His Tag), SEQ ID NO: 17 (protein)
chain: MAPAQRPLLPLLLLLLPLRARNEDPARANADRYAVYWNRSNPRFQVSAVGDGGGYTVEVSINDYLDIYCPHYGAPLPPAERMERYILYMVNGEGHASCDHRQRGFKRWECNRPAAPGGPLKFSEKFQLFTPFSLGFEFRPGHEYYYISATPPNLVDRPCLRLKVYVRPTNETLYEAPEPIFTSNHHHHHH
modifications: His tag
desmoglein-1a (DSG1a)
  relative expression of Dsg1a: increased relative expression
DSG1 protein; DMPA-treated mice
  levels of DSG1 protein in vaginal tissue: similarly increase
DSG1 protein; DMPA-treated mice, listed as EFNA2
  levels of DSG1 protein in vaginal tissue: increased levels of DSG1 protein
